Experimental findings from publication doi:10.1101/2022.07.21.500812 are described below.

Assay [1] concerns the target hGPC3^core(R355A/R358A) (human) (UniProt P51654). Nature of the assay: native MS.
Assay [2] has as its target rattus norvegicus Unc5D residues 32-307 (rUnc5D^IgIgTSP) (rattus norvegicus) (UniProt F1LW30). Briefly: crystal structure.

Sequence of hGPC3^core(R355A/R358A) (human) (P51654 32-483 R355A/R358A): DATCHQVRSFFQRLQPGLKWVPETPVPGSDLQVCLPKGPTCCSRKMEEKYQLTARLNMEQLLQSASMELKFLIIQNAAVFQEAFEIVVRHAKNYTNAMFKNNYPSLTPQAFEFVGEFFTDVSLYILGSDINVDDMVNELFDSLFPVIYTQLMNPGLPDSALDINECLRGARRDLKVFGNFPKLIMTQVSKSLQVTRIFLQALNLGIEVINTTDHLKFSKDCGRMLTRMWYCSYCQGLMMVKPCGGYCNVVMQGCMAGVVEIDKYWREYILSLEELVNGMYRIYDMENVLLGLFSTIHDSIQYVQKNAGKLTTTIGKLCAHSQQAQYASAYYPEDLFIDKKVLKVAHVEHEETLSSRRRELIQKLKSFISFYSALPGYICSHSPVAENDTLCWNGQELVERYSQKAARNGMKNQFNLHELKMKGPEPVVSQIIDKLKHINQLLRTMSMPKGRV

In the case of “rattus norvegicus Unc5D residues 32-307 (rUnc5D^IgIgTSP) (from UniProt F1LW30 32-307) (domain or fragment)”, in assay [1], the stoichiometry N (Unc5D per GPC3 (1:1)) was 1, the stoichiometry N (Unc5D per GPC3 (2:2)) turned out to be 1 and the stoichiometry N (Unc5D per GPC3 (4:4)) came out at 1. Further, in assay [2], the stoichiometry N (usually a count of units in the complex or per binding partner) stood at 4.
